Measurements: US20040014658A1

Columns and labels:
Assay in all cases: cell-based or functional assay
FGF Receptor 2 = molecular target: FGF Receptor 2
FGF Receptor 3 = molecular target: FGF Receptor 3
FGF Receptor 1 = molecular target: FGF Receptor 1

Measured: JNK activation (Western, anti-active JNK), lowest active concentration

FGF Receptor 3, sequence (P22607 23-806): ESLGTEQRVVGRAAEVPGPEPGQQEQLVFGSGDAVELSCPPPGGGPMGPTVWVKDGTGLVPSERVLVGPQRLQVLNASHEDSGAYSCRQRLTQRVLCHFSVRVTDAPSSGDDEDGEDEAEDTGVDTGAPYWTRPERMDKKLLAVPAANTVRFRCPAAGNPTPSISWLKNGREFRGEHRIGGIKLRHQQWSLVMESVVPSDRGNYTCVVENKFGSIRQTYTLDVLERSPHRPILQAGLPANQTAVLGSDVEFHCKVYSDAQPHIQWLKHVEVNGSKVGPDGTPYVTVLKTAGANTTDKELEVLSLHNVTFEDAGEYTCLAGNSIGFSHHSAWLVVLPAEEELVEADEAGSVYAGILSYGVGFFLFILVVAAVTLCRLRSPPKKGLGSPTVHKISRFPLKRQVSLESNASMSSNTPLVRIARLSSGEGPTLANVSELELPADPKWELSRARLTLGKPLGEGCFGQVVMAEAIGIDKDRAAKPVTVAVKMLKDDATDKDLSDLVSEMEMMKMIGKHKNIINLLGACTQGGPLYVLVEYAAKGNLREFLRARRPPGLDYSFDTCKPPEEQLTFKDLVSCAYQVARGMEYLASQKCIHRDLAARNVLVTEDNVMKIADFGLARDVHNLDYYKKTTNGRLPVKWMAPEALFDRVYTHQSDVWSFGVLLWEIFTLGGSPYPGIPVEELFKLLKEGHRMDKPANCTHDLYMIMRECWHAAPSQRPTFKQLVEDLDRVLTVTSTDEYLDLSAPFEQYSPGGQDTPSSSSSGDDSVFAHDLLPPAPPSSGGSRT

wild type FGF-9 (ligand)
< 12.5 ng/mL: all assays above
